From patent publication US20230348560A1

Target: HLA-G1 isoform stably expressed on THP1 cells (human) (UniProt P17693)
Assay: cell-based or functional assay

luciferase activity of THP1-HLA-G1-GFPffluc targets after 24 h coculture (E:T 5:1 and 1:1): > 100000 light units
Substance: full length ILT2 (pNT-110 SFG-ILT2-T2A-ΔCD19) (from UniProt Q8NHL6 24-650) (receptor)
